For data set [1], the target named is MLV Gag polyprotein in immature virus particles (immature CA lattice) (murine leukemia virus (MLV)). Description: cryo-EM structure; cryo-ET and subtomogram averaging of the CA layer in purified, fixed immature MLV particles (PR D32L); 79 particles, sixfold symmetry, 6.6 Å; crystal structures fitted as rigid bodies.
Data set [2] deals with truncated MLV CA-CTD (residues 132–218, CA-CTDΔCAH) (murine leukemia virus (MLV)). Description: crystal structure; X-ray, SAD with cobalt, 1.89 Å, space group P3(1)21; crystals grown at 20 °C, 37 mg/mL protein, 4% PEG 3350, 0.1 M Hepes pH 8.2, 5 mM each CoCl2, CdCl2, MgCl2, NiCl2.
Data set [3] concerns the molecule itself. Description: cryo-EM structure; cryo-ET and subtomogram averaging of the CA lattice in purified, fixed mature MLV particles; 134 virions; hexamer 7.2 Å, pentamer 8.6 Å; repeated with a second preparation (8.1 Å); crystal structures fitted as rigid bodies.

Several values for one entry are separate records, joined by “and”; a condition that tells them apart may be missing. Identical values can stand only once.

One may read the stoichiometry N as the number of molecules, sites or subunits per partner or assembly. As to “MLV Gag polyprotein in immature virus particles (immature CA lattice) (natural protein)”, the stoichiometry N in data set [1] turned out to be 6.

With “truncated MLV CA-CTD (residues 132–218, CA-CTDΔCAH) (domain or fragment)”, the stoichiometry N in data set [2] was 2.

B1: MLV CA (capsid) protein in mature virus particles (mature CA lattice) (natural protein)
chain: PLRAGGNGQLQYWPFSSSDLYNWKNNNPSFSEDPGKLTALIESVLITHQPTWDDCQQLLGTLLTGEEKQRVLLEARKAVRGDDGRPTQLPNEVDAAFPLERPDWDYTTQAGRNHLVHYRQLLLAGLQNAGRSPTNLAKVKGITQGPNESPSAFLERLKEAYRRYTPYDPEDPGQETNVSMSFIWQSAPDIGRKLERLEDLKNKTLGDLVREAEKIFNKRETPEEREERIRRETEEKEERRRTEDEQKEKERDRRRHREMSKLL
notes: CA (capsid) protein of murine leukemia virus, the product of cleavage of Gag by the viral protease; 263 residues (CA-CTD printed as residues 132-263); numbers count on: the CA protein; also called mature MLV CA; mature CA hexamer; source: HEK293T, transfected with the infectious clone pRR390; in purified mature virus particles, fixed with 1% paraformaldehyde
Consider B1, for which the “stoichiometry N” value in data set [3] is 6 and 5.

The values are drawn from publication PMC6294937, “Structure and architecture of immature and mature murine leukemia virus capsids” (Proceedings of the National Academy of Sciences of the …, 2018).
